Measured values from the nanobody polyreactivity screen of Harvey et al. (2022).

Experiment: yeast display, Sf9 membrane polyspecificity reagent, FACS + sequencing; frameworks hold sequencing errors
Outline: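 Galactose-induced (36–48 hours) yeast carrying a synthetic nanobody display library were exposed to 10% biotinylated, detergent-solubilized Sf9 membrane reagent at 4 °C for 1 hour. FACS followed streptavidin microbead enrichment, using low and high (top ~1%) gates for expression (anti-HA) and reagent binding (streptavidin). Colony PCR, MiSeq 2 × 250 sequencing and CDR-length filtering followed. Labels for polyreactivity reflect the gate of origin.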
With “QVQLVDSGGGLVQAGGSLRLSCAGSGLTFRFYAMVWYRQAPGKEREFVAAISSSGTTTYYADSVKGRFTISRDNAKNTVYLQMNSLKPEDTADFYCNKEYTTYGYDLEYDFWGQGTQVTVSS” the “polyreactivity (PSR sort gate)” value was “low polyreactivity”. In the case of “QVQLVDSGGGLVQAGGSLRLSCGASGLIFKYNVMGWYRQAPGKERELVAAITWGGTRTYYADSVKGRFTISRDTAKNTVYLQMNSLKPEDTAVYYCAVRSARIERNYWGQGTQVTVSS”, the “polyreactivity (PSR sort gate)” value is reported as “low polyreactivity”. In the case of “QVQLVDSGGGLVQAGGSLRLSCPASGGIFGEYAMGWYRPAPGKEMELVAAINWSGGSTYYADSVKGRFTISRDNAKNTVYLQMNSLKPEDTAVYYCAADRGYPGNVDYWGQGSQVTVSS”, the “polyreactivity (PSR sort gate)” value is reported as “low polyreactivity”. For “QVQLVDSGGGLVQAGGSLRLSCPASGSIIPYNALGWYRQAPGKERELVATISSGGSTNYADSVKGRFTISRDNAKNTVYFQMNSLKPEDTAVYYCAADVIVFYYAPNYWGDIEYGYWGQGTQVTVSS”, the “polyreactivity (PSR sort gate)” value was “low polyreactivity”. In the case of “QVQLVDSGGGLVQAGGSLRLSCPASGSTFLVYAMGWYRQAPGKERELVAVITYSTVRTYYADSVKGRFTISRDNAKNTVYLQMNSLKPEDTAVYHCNADKEFAVLGQGMDFWGQGTQVTVSS”, the “polyreactivity (PSR sort gate)” value is reported as “low polyreactivity”. With “QVQLVDSGGGLVQAGGSLRLSCSASGIIFRYYTMVWYRQDPGKERELVASISRSGGNTYYADSVKGRFTISRDNAMNTVYLQMNSLKPEDTAVYYCAARRHQKYQESNYWGQGTQVTVSS” the “polyreactivity (PSR sort gate)” value was “high polyreactivity”. In the case of “QVQLVDSGGGLVQAGGSLRLSFAASGNIIYQNAMGWDRQAPGKERELVAAISSGGSTNYADSVKGRFTISRDNAKITVYLQMNSLKPEDTAVYYCAAEHWTESVWDDSWGQGTQVTVSS”, the “polyreactivity (PSR sort gate)” value is reported as “low polyreactivity”. With “QVQLVDSGGGLVQAGGSLRLSSAASGRIFNRYAMGWYRQAPGKERELVAAITRGTRTNYADSVKGRFTISRDNAKNTVYLQMNSLKPEDTAVYYCAAAYGRGSDSDYWGQGTQVTVSS” the “polyreactivity (PSR sort gate)” value was “high polyreactivity”. For “QVQLVDSGGGLVQAGGSLRLSSPASGIIFTRYTMGCYSQEPGKERELVAAITTSGGRTYYADSVKGRFTISRDNAKNTVYLPMNSLKPEDTAVYYCDVSGHARYDYWGQGTQVTVSS”, the “polyreactivity (PSR sort gate)” value was “high polyreactivity”. In the case of “QVQLVDSGGGLVQAGGSLSLICAASGSNFRYYAMGWYRKAPGKERELVDAINWSGGSTYYADSVKGRFTSSRDNAKNTVYLQMNSLKPEHTAVYSCNAVGWRSLHRDYWGQGTQVTLSS”, the “polyreactivity (PSR sort gate)” value is reported as “high polyreactivity”. For “QVQLVDSGGGLVQAGGSLSLSCAASGRTFVTNAMGWYRQAPGKERELVAAISGNGGSTYYADSVKGRFTISRDNAKNTVYLQMNSLKPEDTAVYYCNKDYHVRYYYWGQGTQVTVSS”, the “polyreactivity (PSR sort gate)” value was “low polyreactivity”. For “QVQLVDSGGGLVQARVNLRLSCRATGIIFYLYVMGWYRQSPGKDRELVAVISYSGDDTYYADSVQVRFTISRDNAKNTVYLQMISLKPEDTAVYYCADDSIGYGVDYWGQGTQVTVSS”, the “polyreactivity (PSR sort gate)” value was “low polyreactivity”. For “QVQLVDSGGGLVQAVGSLRLSCAASGRTFRRYAMGWYRQAPGKERELVAAISRSGGSTYYADSVNGRFTISRDNAKNTVYLQMNSLKPEDTAVYYCAAGIWSKLVEPFDYCGQGTQVTVSS”, the “polyreactivity (PSR sort gate)” value was “high polyreactivity”. In the case of “QVQLVDSGGGLVQAVGSLRLSCAASGRTLGAYAMGWYRQAPGKEREFVARITYGGRTFYADSVKGRFTISRDNAKNTVYLQMNSLKPEDTAVYYCATKLPYRWYDYWGQGTQVTVSS”, the “polyreactivity (PSR sort gate)” value is reported as “high polyreactivity”. In the case of “QVQLVDSGGGLVQEGGSLRLSCAASGNIFQTYDMGWYRQAHGKEREFVATITSSCARTYYADSVKGRFTISRDNAKNTVYVQMNCLKPEDTAVDYCNRVWSYANGYWGHGTQVTVSS”, the “polyreactivity (PSR sort gate)” value is reported as “high polyreactivity”. For “QVQLVDSGGRLVHAGGSLRLSCAASGRTIYRNAMGLYRQAPGKERELVAAISSDDSTNYSDSVKGRFTISRDNAKNTVYFQMNSLKPEDTAVYYCNADYYYGYDYDYWGQGSQVTVSS”, the “polyreactivity (PSR sort gate)” value was “low polyreactivity”. With “QVQLVDSGRGLFQAGGSLRLSCAASGRTSSSNVMGWYRQAPGKERELVASINEGGNTYYADSVKGRFTISRDNATNTVYLQMNSLKPEDTAVYYCATEESGYSSWYGYGYSYDYWGQGTQVTVSS” the “polyreactivity (PSR sort gate)” value was “low polyreactivity”. With “QVQLVDSGRGLVQAGGSLRLSCAASGSTFRWNAMGWYRQAPGKERELVAAIDNSGTSTYYADSVKGRFTISRDNAKNTVYLQMNSLKPDDTAVYYCNVRISNTAYRYPTFDYWGQGTQVTVSS” the “polyreactivity (PSR sort gate)” value was “low polyreactivity”. With “QVQLVDSVGGLVKAGCSLRLSCAASGSTLPVNAKGCYRQAPGKERELVAAINRDGSTIYADSVKRPFTISRDIAKNTVYLKMNRLKPEDTAVYYCAADGFGYPGKRYDFWGQGTQVTVSS” the “polyreactivity (PSR sort gate)” value was “low polyreactivity”. In the case of “QVQLVDSVGGLVQAGGSLRLSCAASGSIFGYYAMAWYRQAPGKERELFASITRSGDTTYYADSVKGRFTISRDNANNTVFLQMNSLKQEDTAVSYCAARRWRWYYDGFVRMDYWGQGTQVTVSS”, the “polyreactivity (PSR sort gate)” value is reported as “high polyreactivity”. For “QVQLVEACGGLVQAGGSLRLICAASGNIFAYNAMGWYRQAPGKERELVAAISVIGGTTYYADSVKGRFTISRDNAKNTVYLQMNSLKPEDTAVYSCSVDSVQYGGGYERLHELYYWGQGTQVTVSS”, the “polyreactivity (PSR sort gate)” value was “low polyreactivity”. In the case of “QVQLVEAGGCLVHAGGSLRLSCAASGRIFVGNAMGWYRQAPGKERELVAAINNGGTTYYADSVKGRFTIARDNGKNTVYLQMNSLKPEDTAVYHCAATPYRGTRSYLIGELDYWGQGTQVTVSS”, the “polyreactivity (PSR sort gate)” value is reported as “low polyreactivity”. In the case of “QVQLVEAGGGLVQAGGRLRLSCAASGRIFGRTAMGWYRQAPGKERELGAAIRRSSASTYYADSVKGRFTISRDNAKNTFYLQMNSLKPEDTAVYYCATQSYSYYGYRYRYAAFDYWGQGTQVTVSS”, the “polyreactivity (PSR sort gate)” value is reported as “high polyreactivity”. For “QVQLVEAGGGLVQAGGRLRLSSAASGNIFIWYALGWYRQAPGKERELVAAIRWSGGGTYYADSVKGRFTISRDNAKNTVYFQMNSLKPEDTAVYYCAAESSASWYNFWGYEYWGQGTQVTVSS”, the “polyreactivity (PSR sort gate)” value was “high polyreactivity”. With “QVQLVEAGGGLVQAGGSLRFSCAASGSLFRWYAMGWYRQAPGKERELVAAINRGGDSTYYADSVKGRFTISRDNAKNTVYLQMNSLKPEDTAVYYCNAVSSWKLLYSSYDSWGQGTQVTVSS” the “polyreactivity (PSR sort gate)” value was “high polyreactivity”. In the case of “QVQLVEAGGGLVQAGGSLRLIFASSGSTLYLYVMVWYRQAPGKESELVDVISSSSGRTYYADSVKGRFTISRDNAKNSVYLQMNSLKPEDTAVYYCAADNYVGYHWYNYWGQGTQVTVSS”, the “polyreactivity (PSR sort gate)” value is reported as “high polyreactivity”. In the case of “QVQLVEAGGGLVQAGGSLRLSCAASGRIFVYYTMGWYRQAPGKERELVAAIIGGGSTNYADSVKGRFTISRDNAKNTVYLQMNSLKPEDTAVYDCAAVRYRYSYVSHSRIYDYWGQGTQVTVSS”, the “polyreactivity (PSR sort gate)” value is reported as “high polyreactivity”. For “QVQLVEAGGGLVQAGGSLRLSCAASGRIFYYYAMGWYSQAPGKEREFVAAIRISGGSKNYADSVKGRFTISRDNAKNNVYLQMNSLKPEETAVYYSAARSKYSGIRRAYDYWGQGTQVTVSS”, the “polyreactivity (PSR sort gate)” value was “high polyreactivity”. In the case of “QVQLVEAGGGLVQAGGSLRLSCAASGRIIIYNAMGWYRQPPGKERELVAAISSTGGSTNYADSVKGRFTISRDNAMNSVYLQMNSLKPEDTAVYYCNALPGRASLRYNYWGQGTQVTVSS”, the “polyreactivity (PSR sort gate)” value is reported as “high polyreactivity”. In the case of “QVQLVEAGGGLVQAGGSLRLSCAASGRISYTYAMGWYRQAPGNERELVAAITDGGSTTYADSVKGRFTISRDNAKNTVYLQMNSLKPEDTAVYYCNADTDSAKSPAYYYWGQGTQVTVSS”, the “polyreactivity (PSR sort gate)” value is reported as “low polyreactivity”. With “QVQLVEAGGGLVQAGGSLRLSCGASGRIFQSNAMGGYRLAPGKERELVAAISKSGGSTYYADSVKGRFTISRDNAKNTVYLQMNSLKPEDPAVYYCAAYPPRRMYYWGQGTQVTVSS” the “polyreactivity (PSR sort gate)” value was “high polyreactivity”. With “QVQLVEAGGGLVQAGGSLRLSGAASGYTFGGNAMGWYRPAPGKERELVAGITWTGGTTYYADSVKGRFTISRDNAKNTVYLQMNSLKPEETAVYYCNASLDSQDGDYWGQGTQVTVSS” the “polyreactivity (PSR sort gate)” value was “low polyreactivity”.
